# Ends that are not written are not given here.
# B1: BK1.3 (17-mer synthetic dimeric peptide derived from Evasin P672) (peptide)
# peptide: YEDEDYEDFFKPVTCYF
# modifications: also: dimer via disulfide between the Cys of the two copies
# How the values were obtained:
# CCL8 [1] = target: CCL8 (UniProt P80075)
# CCL8 [2] = target: CCL8 (UniProt P80075); remark: listed apart in the source
# UniProt P80075, sequence (P80075 24-99): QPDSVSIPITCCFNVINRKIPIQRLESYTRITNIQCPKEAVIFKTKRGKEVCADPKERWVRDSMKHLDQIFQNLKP
Molecule,IC50 of inhibition of CCL8-induced THP1 cell migration (CCL8 [1]) [nM],IC50 of inhibition of CCL8-driven THP-1 cell migration (dose-response peptide titration) (CCL8 [2]) [nM]
Evasin P672 (natural protein),4.6 to 10,–
B1,–,4.2

# Reference: paper PMC11976344
